Source: the supplement of paper PMC10126150
± gives the standard deviation of the averaged measurements.

System: ATP
Assay: switch fluorescence ratio, 500 uM ATP over buffer (Cy3 cluster intensity, sum of 5 cycles each) (fold (ratio)); higher = stronger signal-on switching upon ATP binding; sequences stand for … in TCGTCGGCAGCGTCAGATGTGTATAAGAGACAGTTTTTTTTTTTTTTTTTTTTTTTTT…TC
Conditions: aptamer strand: ATP DNA aptamer (quencher-CACCTGGGGGAGTATTGCGGAGGAAGG + anchor), 100 nM annealed; ATP concentration: 500 uM
Outline: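 Imaging in selection buffer was followed by imaging after 15 min with 500 uM ATP at 22 °C, for Cy3-labelled switching-strand clusters annealed to 100 nM quencher-labelled ATP aptamer on a modified Illumina MiSeq flow-cell. Five of these buffer/ATP cycles ran, separated by NaOH stripping and re-annealing. The fluorescence ratio per cluster is summed target-cycle over summed buffer-cycle Cy3 intensity, averaged per switch-domain sequence; clusters outside 100-1000 RFU were removed.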
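Also: ATP exposure 15 min at 22 °C before imaging.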

Row | Sequence | switch fluorescence ratio
1 | AGAGGGGGGT | 0.99 ± 0.022
2 | TGGGTCTGTT | 1.01 ± 0.046
3 | CCATATGT | 0.985 ± 0.028
4 | AGGAAGAAAG | 1.042 ± 0.0089
5 | TTCCGGATTA | 1.07 ± 0.065
6 | TCAAGCGGGG | 1.06 ± 0.09
7 | ATTGCCGGGA | 1.01 ± 0.0089
8 | TGGGCCGCCC | 1.07 ± 0.12
9 | CTTGCGCCTG | 1.01 ± 0.048
10 | TCGTGCACGA | 1.018 ± 0.0062
11 | CGGGGCGGTC | 0.96 ± 0.047
12 | ATGGGGGTTC | 0.992 ± 0.023
13 | TCCTAGTTGT | 0.9798 ± 0.0013
14 | GTTATATTGT | 0.9943 ± 0.0096
15 | TTTAAATATG | 0.9942 ± 0.0073
16 | TTATGCTTGG | 0.976 ± 0.031
17 | ATGCATCTAT | 0.989 ± 0.011
18 | AAGGTAGGGG | 0.986 ± 0.018
19 | TGGTAGACGG | 1.15 ± 0.26
20 | CGGGGGCATG | 1.013 ± 0.0094
21 | TGGTACGGAG | 1 ± 0.011
22 | AATCGAGGAG | 0.957 ± 0.053
23 | CTAATTCTG | 0.98 ± 0.018

Row | Sequence | switch fluorescence ratio
24 | TATCACTTTA | 1.088 ± 0.0043
25 | GGACGTCGGA | 1.05 ± 0.12
26 | GATTATATAT | 0.986 ± 0.015
27 | GGAGTTGCGC | 1.03 ± 0.043
28 | ACGTTTAACT | 1.25 ± 0.015
29 | GTGTTGGTAT | 1.01 ± 0.034
30 | AATAGGGGCA | 0.949 ± 0.017
31 | TTTTTATCA | 0.9798 ± 0.0082
32 | AGGTAAAAAG | 1.02 ± 0.017
33 | GGTAACCGCT | 1.01 ± 0.03
34 | ACGAATTGTT | 0.9848 ± 0.0026
35 | AACGGGGCTC | 1.04 ± 0.066
36 | TAGTTGTTGT | 0.981 ± 0.049
37 | AATTGGGTAA | 1.025 ± 0.0083
38 | CGGGTATGGA | 1.02 ± 0.033
39 | CCAGTAGTTA | 0.999 ± 0.015
40 | TTGTTTGCAA | 1.52 ± 0.74
41 | ATTGATTGAT | 1.02 ± 0.024
42 | TTTCCTTTTT | 1.15 ± 0.36
43 | GGCAGATGAA | 1.03 ± 0.011
44 | GATTAGGTTG | 0.968 ± 0.072
45 | CGGGAGAGAG | 1.03 ± 0.014
46 | AATTCGACGT | 0.9963 ± 0.0091

Row | Sequence | switch fluorescence ratio
47 | GGTTTCGCCA | 0.9807 ± 0.0096
48 | TAGAGGGGCT | 0.993 ± 0.03
49 | CTTGGTAGTG | 0.959 ± 0.015
50 | CATGTCCAGG | 1.46 ± 0.059
51 | AGGCAGTGGG | 0.998 ± 0.028
52 | AATCTACTGA | 1.013 ± 0.01
53 | GGTTTGGATA | 0.985 ± 0.028
54 | GCAGGGTTTC | 0.997 ± 0.024
55 | GATTTACATT | 1.019 ± 0.0024
56 | GGCGGTAAAG | 0.992 ± 0.037
57 | GCGTTTGGCT | 0.996 ± 0.021
58 | TTTAAAGAGG | 0.9813 ± 0.0042
59 | TAAAAAGA | 0.9496 ± 0.005
60 | TGTCAGGGCC | 1.04 ± 0.053
61 | TTGGCGTCAA | 1.36 ± 0.51
62 | GGGTAGTGGT | 1.01 ± 0.038
63 | TCTTGGAGCT | 1.01 ± 0.019
64 | GACGACTGAG | 0.999 ± 0.087
65 | GAGAGGGAGC | 0.91 ± 0.076
66 | CGACAAGCAG | 1.09 ± 0.026
67 | TTCGCGGGTG | 1.05 ± 0.025
68 | TGGGTGTAGC | 0.986 ± 0.011
69 | ACTTAGTTTT | 1.0386 ± 0.00082

Row | Sequence | switch fluorescence ratio
70 | CATGAAGGGG | 1.02 ± 0.015
71 | TTGTGGAATG | 1.015 ± 0.0094
72 | GCACGGGGGT | 1.05 ± 0.045
73 | TAGGGGGGTA | 0.982 ± 0.035
74 | AGGGGGCGCA | 0.991 ± 0.051
75 | TTAAAGGGTA | 0.992 ± 0.054
76 | AGATGCAGTA | 1.01 ± 0.028
77 | ATTTCACGGC | 1.05 ± 0.024
78 | GTTTTGGTAC | 1.01 ± 0.038
79 | TGTTTTAAAA | 0.99 ± 0.027
80 | GACGACTATT | 1.13 ± 0.016
81 | TAAAGGGGGC | 1.05 ± 0.017
82 | TGAGAAGCGG | 0.97 ± 0.039
83 | ACATGGTTTT | 1.01 ± 0.017
84 | GATGGGCGGT | 0.9773 ± 0.0094
85 | GATGTAGTTT | 0.993 ± 0.027
86 | GGGCAATTGG | 0.992 ± 0.0056
87 | TCGTCTTTTG | 0.997 ± 0.015
88 | ATGTGTGTTG | 1.04 ± 0.046
89 | CGCGTACGGA | 0.989 ± 0.005
90 | CACAGGCCAA | 1.2 ± 0.029
91 | TAAAAAAGG | 0.997 ± 0.042
92 | TTTTAGTGGC | 1.02 ± 0.029

Row | Sequence | switch fluorescence ratio
93 | AAGGTGAGGT | 1.038 ± 0.006
94 | TAAATTTAAT | 0.982 ± 0.034
95 | GCACGGCGTA | 1.04 ± 0.038
96 | CTACTTTAGA | 0.993 ± 0.036
97 | CGGTTTGGCT | 1.08 ± 0.12
98 | CAAGAAAAGT | 0.978 ± 0.048
99 | AAAGGTGATG | 0.978 ± 0.04
100 | CGGGTGGTCG | 0.8742 ± 0.0063
101 | CAGTTCCATG | 0.9857 ± 0.0091
102 | GTTACGTTAT | 1.13 ± 0.078
103 | GGTGCGGGGG | 0.987 ± 0.093
104 | TTAATTACCA | 0.984 ± 0.029
105 | ATGAAGTGAG | 1.01 ± 0.027
106 | GGTTTCTAAG | 1.01 ± 0.042
107 | TTTTTGAACT | 1.01 ± 0.037
108 | GCCCGGATTT | 1 ± 0.047
109 | GGGTTTGAAG | 1 ± 0.025
110 | CTACAAAGGG | 1.005 ± 0.0037
111 | AAGGGGTAGT | 0.997 ± 0.025
112 | GGTTGAGCTG | 0.945 ± 0.056
113 | AGCGATTATA | 0.991 ± 0.0037
114 | ATGGGTATGT | 1.01 ± 0.043
115 | AGGCATGCTG | 0.98 ± 0.062

Row | Sequence | switch fluorescence ratio
116 | TCTCTGTCGA | 1.4 ± 0.11
117 | GTAGCTTTGG | 1.04 ± 0.027
118 | CCGGGAGGGG | 1.11 ± 0.12
119 | TTGTTTTTAC | 1.07 ± 0.052
120 | TCTCTTTTTA | 1.02 ± 0.023
121 | TTTAGGGTG | 1.05 ± 0.061
122 | GCCGCAGTTT | 1.31 ± 0.18
123 | ATGGTTTTT | 0.984 ± 0.022
124 | ATATAGGTA | 1.036 ± 0.0097
125 | TGTCCGGGGG | 0.994 ± 0.029
126 | CTTATAATAG | 1.036 ± 0.006
127 | TAACTGTTCC | 1.12 ± 0.11
128 | TGGCGCCCTT | 1.01 ± 0.012
129 | CTAGTATATT | 0.993 ± 0.025
130 | TTGCGTTATC | 1.2 ± 0.27
131 | CACTTTTTGG | 0.999 ± 0.003
132 | GTTGTTGCTA | 0.99 ± 0.034
133 | AAGGGATGCT | 1 ± 0.011
134 | TCAACCCTTA | 1.03 ± 0.038
135 | CATTAGGGCT | 0.978 ± 0.015
136 | TACCGGATTT | 0.979 ± 0.0026
137 | AAATCTCTTT | 1 ± 0.014
138 | GAGGGCCATT | 0.978 ± 0.017

Row | Sequence | switch fluorescence ratio
139 | TCATGGTGGG | 1 ± 0.025
140 | TAGGAAGATG | 1.02 ± 0.1
141 | TAAAGTGATT | 0.988 ± 0.025
142 | TTTTGGAAAC | 1.11 ± 0.17
143 | CACGGTGGCT | 1.01 ± 0.03
144 | GCTTTAGTTC | 1.03 ± 0.003
145 | ACGGACTGGT | 1.18 ± 0.014
146 | GCGAGAAATC | 1.08 ± 0.019
147 | GTTGGGCCGT | 0.987 ± 0.038
148 | TCACGGGGGT | 1.17 ± 0.23
149 | AGAATGGTTT | 0.985 ± 0.03
150 | GGGTTATCAG | 0.981 ± 0.035
151 | GCTGGAATGG | 1.06 ± 0.015
152 | CAGTCGGTGG | 1 ± 0.031
153 | ATGGGGGGCC | 0.995 ± 0.026
154 | GGGGTCAGTT | 0.973 ± 0.025
155 | GACAGGGTCC | 1.04 ± 0.052
156 | AAGCTTTGTG | 0.9786 ± 0.0076
157 | GGGTTTAAAA | 0.985 ± 0.044
